Reference: the supplement of paper PMC11136658

Tested on: peptide library, one residue held at a place counted from the Y acceptor
Assay: relative phosphorylation of the sub-library (ratio to the mean residue at this position); higher = residue favoured
In short: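 Biotinylated Tyr-centred peptide library mixtures, each fixing one residue at one position from −5 to +5, were incubated with purified recombinant kinases in 384-well plates for 90 min with 50 μM ATP plus γ-32P-ATP. Streptavidin membranes captured the peptides, which were rinsed and quantified by phosphorimaging and ImageQuant. At each position, intensities were divided by the sum of the 18 randomized residues (16 for the Ser/Thr-free library) and multiplied by that number. Each value is phosphorylation relative to the mean randomized residue.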

Sequence of TNK1, construct: aa106-390, human (Q13470 106-390, looked up): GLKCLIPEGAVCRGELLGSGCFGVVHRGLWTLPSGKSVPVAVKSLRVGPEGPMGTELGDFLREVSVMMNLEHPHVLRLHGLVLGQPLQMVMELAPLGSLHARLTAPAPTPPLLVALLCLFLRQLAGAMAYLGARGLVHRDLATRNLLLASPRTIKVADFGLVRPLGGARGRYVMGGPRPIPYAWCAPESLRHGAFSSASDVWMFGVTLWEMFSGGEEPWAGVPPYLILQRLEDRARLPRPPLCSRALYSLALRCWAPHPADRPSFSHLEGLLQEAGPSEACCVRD
Sequence of TESK1, construct: aa1-345, human (Q15569 1-345, looked up): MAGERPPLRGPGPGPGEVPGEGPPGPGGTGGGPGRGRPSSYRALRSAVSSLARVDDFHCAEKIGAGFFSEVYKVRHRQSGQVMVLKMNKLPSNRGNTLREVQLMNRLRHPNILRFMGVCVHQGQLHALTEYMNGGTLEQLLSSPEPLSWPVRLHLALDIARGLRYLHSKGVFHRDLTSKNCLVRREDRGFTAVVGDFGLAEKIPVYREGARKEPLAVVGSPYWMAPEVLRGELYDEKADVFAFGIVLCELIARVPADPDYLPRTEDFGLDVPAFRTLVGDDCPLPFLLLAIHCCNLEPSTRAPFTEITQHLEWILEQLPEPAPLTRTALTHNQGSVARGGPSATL

TESK1, construct: aa1-345, human (from UniProt Q15569)
relative phosphorylation
Settings	at +1	at +2	at +3	at +4	at +5	at -1	at -2	at -3	at -4	at -5
A fixed	0.921	0.778	0.879	0.762	0.876	0.971	0.967	0.874	0.973	0.938
D fixed	0.992	0.998	0.881	0.902	0.794	0.977	0.822	0.931	0.858	0.85
E fixed	0.876	0.917	0.871	0.854	0.839	0.953	0.833	0.776	0.792	0.742
F fixed	0.935	1.11	0.936	0.966	0.869	0.778	0.911	0.926	0.984	0.883
G fixed	0.887	0.899	0.928	1.03	0.915	1	1.09	1.11	1.13	1.05
H fixed	1.01	1.09	1.06	1.07	1.17	0.962	0.976	0.915	0.949	0.975
I fixed	0.796	0.626	0.682	0.781	0.734	0.774	0.952	0.79	0.823	0.861
K fixed	1.13	1.27	1.23	1.3	1.15	1.18	1.34	1.25	1.26	1.35
L fixed	0.81	0.812	0.783	0.913	0.807	0.831	0.92	0.918	0.816	0.862
M fixed	0.76	0.796	0.831	0.928	0.841	0.835	0.81	0.846	0.869	0.82
N fixed	1.05	1.16	1.11	0.978	0.964	1.17	1.01	0.971	0.921	0.964
P fixed	1.02	1.09	1.15	1.28	1.05	1.26	1.07	1.36	1.16	1.1
Q fixed	1.09	1.09	1.02	1.09	0.929	1	0.842	1.04	0.891	0.831
R fixed	1.18	1.25	1.23	1.19	1.27	1.26	1.27	1.29	1.2	1.27
V fixed	0.817	0.69	0.72	0.764	0.713	0.743	0.946	0.864	0.875	0.881
W fixed	1.72	1.44	1.69	1.19	2.09	1.29	1.24	1.14	1.5	1.62
pThr fixed	0.988	0.893	0.765	0.809	0.615	1.05	0.932	0.934	0.929	0.776
pTyr fixed	0.746	0.819	0.738	0.714	0.627	0.861	0.798	0.896	0.669	0.711

TNK1, construct: aa106-390, human (from UniProt Q13470)
relative phosphorylation
Settings	at +1	at +2	at +3	at +4	at +5	at -1	at -2	at -3	at -4	at -5
A fixed	1.56	0.82	0.743	0.902	0.977	0.86	1.01	0.962	1.07	1.08
D fixed	0.25	0.328	0.335	0.714	0.594	0.276	0.529	0.641	0.78	0.845
E fixed	0.386	0.471	0.268	0.706	0.558	0.277	0.576	0.606	0.8	0.737
F fixed	1.09	1.28	1.87	1.25	1.1	1.01	0.762	0.95	0.886	0.885
G fixed	0.859	0.527	0.82	0.965	1.11	0.924	1.39	1.26	1.32	1.24
H fixed	1.12	0.884	1.24	1.1	0.947	1.64	1.14	1.09	1.01	1.1
I fixed	1.05	1.43	1.27	0.73	0.857	0.809	0.627	0.571	0.807	0.849
K fixed	1.2	1.09	0.728	1.25	1.23	1.59	1.41	1.43	1.29	1.37
L fixed	1	1.23	1.21	0.892	0.997	0.825	0.678	0.784	0.963	0.904
M fixed	1.05	1.36	1.16	1.11	1.13	0.927	0.681	0.84	0.941	0.934
N fixed	0.602	0.876	0.627	0.959	0.978	0.898	1.22	1.1	0.936	1.03
P fixed	0.544	0.843	0.976	1.15	1.53	1.18	1.36	1.33	1.44	1.26
Q fixed	1.08	0.825	0.573	1.1	0.864	1.09	1.07	0.982	1.02	1.04
R fixed	1.45	1.27	0.987	1.28	1.17	2.56	1.8	1.6	1.44	1.26
S fixed	0.936	0.787	0.661	0.901	0.982	0.779	1.23	1.15	0.863	0.999
T fixed	1.03	1.07	0.665	0.891	1.01	0.895	1.01	1.06	0.765	0.912
V fixed	1.18	1.4	1.19	0.846	0.878	0.733	0.748	0.702	0.828	0.832
W fixed	1.6	1.51	2.69	1.26	1.1	0.723	0.749	0.947	0.845	0.718
pThr fixed	0.344	0.38	0.211	0.367	0.429	0.291	0.492	0.539	0.593	0.738
pTyr fixed	0.725	0.413	0.326	0.454	0.485	0.538	0.594	0.733	0.791	0.812
